Reference: PMC12279200, “Tumor‐Associated Glycan Exploits Adenosine Receptor 2A Signaling to Facilitate Immune Evasion” (Advanced Science, 2025)

B1: translin‐associated factor‐X (TRAX), endogenous (natural protein, UniProt Q99598 1-290, looked up)
chain: MSNKEGSGGFRKRKHDNFPHNQRREGKDVNSSSPVMLAFKSFQQELDARHDKYERLVKLSRDITVESKRTIFLLHRITSAPDMEDILTESEIKLDGVRQKIFQVAQELSGEDMHQFHRAITTGLQEYVEAVSFQHFIKTRSLISMDEINKQLIFTTEDNGKENKTPSSDAQDKQFGTWRLRVTPVDYLLGVADLTGELMRMCINSVGNGDIDTPFEVSQFLRQVYDGFSFIGNTGPYEVSKKLYTLKQSLAKVENACYALKVRGSEIPKHMLADVFSVKTEMIDQEEGIS
notes: translin-associated factor X (TRAX), endogenous in human primary CD4+ T cells and in Jurkat cells; source: endogenous, human primary CD4+ T cell lysate; endogenous, Jurkat (Jurkat-vector) lysate
B2: FLAG‐tagged TRAX^(Q219A, Q223A) (natural protein, UniProt Q99598 1-290, looked up)
chain: MSNKEGSGGFRKRKHDNFPHNQRREGKDVNSSSPVMLAFKSFQQELDARHDKYERLVKLSRDITVESKRTIFLLHRITSAPDMEDILTESEIKLDGVRQKIFQVAQELSGEDMHQFHRAITTGLQEYVEAVSFQHFIKTRSLISMDEINKQLIFTTEDNGKENKTPSSDAQDKQFGTWRLRVTPVDYLLGVADLTGELMRMCINSVGNGDIDTPFEVSAFLRAVYDGFSFIGNTGPYEVSKKLYTLKQSLAKVENACYALKVRGSEIPKHMLADVFSVKTEMIDQEEGIS
notes: translin-associated factor X (TRAX) with Q219A and Q223A; also called mutTRAX‐FLAG; mutTRAX; source: Jurkat cells, lentivirus (Jurkat‐mutTRAX‐FLAG), in lysate
B3: adenosine receptor 2A (A2AR), endogenous (receptor, UniProt P29274 1-412, looked up)
chain: MPIMGSSVYITVELAIAVLAILGNVLVCWAVWLNSNLQNVTNYFVVSLAAADIAVGVLAIPFAITISTGFCAACHGCLFIACFVLVLTQSSIFSLLAIAIDRYIAIRIPLRYNGLVTGTRAKGIIAICWVLSFAIGLTPMLGWNNCGQPKEGKNHSQGCGEGQVACLFEDVVPMNYMVYFNFFACVLVPLLLMLGVYLRIFLAARRQLKQMESQPLPGERARSTLQKEVHAAKSLAIIVGLFALCWLPLHIINCFTFFCPDCSHAPLWLMYLAIVLSHTNSVVNPFIYAYRIREFRQTFRKIIRSHVLRQQEPFKAAGTSARVLAAHGSDGEQVSLRLNGHPPGVWANGSAPHPERRPNGYALGLVSGGSAQESQGNTGLPDVELLSHELKGVCPEPPGLDDPLAQDGAGVS
notes: adenosine receptor 2A (A2AR), endogenous in human primary CD4+ T cells and in Jurkat cells; also called A2a receptor; source: endogenous, human primary CD4+ T cell lysate; endogenous, Jurkat (Jurkat-vector and Jurkat-mutTRAX-FLAG) lysate

Tests used:
[1] = biological target: B3; test: co-IP; Jurkat‐vector or Jurkat‐mutTRAX‐FLAG cells incubated with 30 µM GHCer or PBS at 37 °C for 1 h; immunoprecipitation with anti‐A2AR, anti‐TRAX or anti‐FLAG, western blot; details: partners not purified
[2] = biological target: B3; test: co-IP; human primary CD4+ T cells incubated with 30 µM GHCer or PBS at 37 °C for 1 h; immunoprecipitation with anti‐A2AR or anti‐TRAX, western blot with anti‐TRAX or anti‐A2AR; details: partners not purified
[3] = biological target: B1; test: co-IP; Jurkat‐vector or Jurkat‐mutTRAX‐FLAG cells incubated with 30 µM GHCer or PBS at 37 °C for 1 h; immunoprecipitation with anti‐A2AR, anti‐TRAX or anti‐FLAG, western blot; details: partners not purified
[4] = biological target: B2; test: as above; details: partners not purified
[5] = biological target: B1; test: co-IP; human primary CD4+ T cells incubated with 30 µM GHCer or PBS at 37 °C for 1 h; immunoprecipitation with anti‐A2AR or anti‐TRAX, western blot with anti‐TRAX or anti‐A2AR; details: partners not purified
[6] = biological target: T1, full‐length recombinant A2AR protein (A2AR‐His, fragment A) (UniProt P29274 1-412); test: Luminex bead-based assay; A2AR‐His full length or fragments captured on Luminex beads conjugated with anti‐His antibody; TRAX in solution, detected by antibody and PE-conjugated antibody; with PBS, 30 µM GHCer or 30 µM GH‐biotin; PBS with 1% BSA, 37 °C, 60 min; signals normalised to full‐length A2AR/PBS/TRAX; details: both partners purified
T1 construct: adenosine receptor 2A (A2AR), full-length (fragment A); the printed end of fragment F (aa 412) fits the human protein; captured on beads by an anti-His antibody; also called full‐length N‐His‐A2AR; A2AR‐full length; source: Escherichia coli, His‐tagged recombinant protein; not shown: His, N-terminal, kept

[7] = biological target: T2, A2AR fragment E (aa 291–393) (UniProt P29274 291-393); test: as above; details: both partners purified
T2 construct: adenosine receptor 2A (A2AR), C-terminal fragment E, aa 291–393; source: Escherichia coli, His‐tagged recombinant protein

[8] = biological target: T3, A2AR fragment F (aa 291–412) (UniProt P29274 291-412); test: as above; details: both partners purified
T3 construct: adenosine receptor 2A (A2AR), C-terminal fragment F, aa 291–412; source: Escherichia coli, His‐tagged recombinant protein

B1 was tested, and the “fold TRAX co-precipitated with GHCer over PBS control” value [1] was 2.3 fold and the “fold TRAX co-precipitated with GHCer over PBS control” value [2] was 2.1 fold.

In the case of B2, the “fold co-precipitated by anti‐A2AR with GHCer over PBS control” value [1] is reported as 1 fold.

With B3 the “fold A2AR co-precipitated with GHCer over PBS control” value [3] was 2 fold, the “fold co-precipitated by anti‐FLAG with GHCer over PBS control” value [4] was 1.1 fold and the “fold A2AR co-precipitated with GHCer over PBS control” value [5] was 1.8 fold.

B4: recombinant TRAX (His‐tagged) (natural protein, UniProt Q99598 1-290, looked up)
chain: MSNKEGSGGFRKRKHDNFPHNQRREGKDVNSSSPVMLAFKSFQQELDARHDKYERLVKLSRDITVESKRTIFLLHRITSAPDMEDILTESEIKLDGVRQKIFQVAQELSGEDMHQFHRAITTGLQEYVEAVSFQHFIKTRSLISMDEINKQLIFTTEDNGKENKTPSSDAQDKQFGTWRLRVTPVDYLLGVADLTGELMRMCINSVGNGDIDTPFEVSQFLRQVYDGFSFIGNTGPYEVSKKLYTLKQSLAKVENACYALKVRGSEIPKHMLADVFSVKTEMIDQEEGIS
notes: translin-associated factor X (TRAX); source: Escherichia coli, His‐tagged recombinant protein
In the case of B4, the “fold binding signal with 30 µM GHCer over PBS control” value [6] is reported as 1.6 fold, the “fold binding signal with GHCer over fragment A without GHCer” value [6] is reported as 1.5 fold and the “fold binding signal with GHCer over fragment A without GHCer” value [7] is reported as 2.3 fold. The “fold binding signal with GHCer over fragment A without GHCer” value [8] was 1.8 fold.
